Target: CI-MPR domains 10-13, receptor construct 1288 (wild-type IGF-II binding domain) (human) (UniProt P11717)
Test: SPR

Sequence of CI-MPR domains 10-13, receptor construct 1288 (wild-type IGF-II binding domain) (human) (P11717 1363-1988): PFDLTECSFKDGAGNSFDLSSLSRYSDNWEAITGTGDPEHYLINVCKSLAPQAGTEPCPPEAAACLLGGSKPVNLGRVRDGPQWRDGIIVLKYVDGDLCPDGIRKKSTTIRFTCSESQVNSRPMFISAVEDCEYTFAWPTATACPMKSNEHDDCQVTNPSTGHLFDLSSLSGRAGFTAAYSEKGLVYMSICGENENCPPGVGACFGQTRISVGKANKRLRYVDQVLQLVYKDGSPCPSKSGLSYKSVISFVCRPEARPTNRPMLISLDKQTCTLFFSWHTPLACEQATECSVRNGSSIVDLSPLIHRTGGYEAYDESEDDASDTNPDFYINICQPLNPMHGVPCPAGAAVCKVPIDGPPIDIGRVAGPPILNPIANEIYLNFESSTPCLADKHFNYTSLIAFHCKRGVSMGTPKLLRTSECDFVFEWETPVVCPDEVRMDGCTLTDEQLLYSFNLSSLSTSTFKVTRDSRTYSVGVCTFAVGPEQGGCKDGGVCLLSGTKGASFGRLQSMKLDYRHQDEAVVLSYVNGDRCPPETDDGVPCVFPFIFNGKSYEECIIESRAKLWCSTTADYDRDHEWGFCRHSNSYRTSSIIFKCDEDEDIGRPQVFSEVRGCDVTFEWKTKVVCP

**Q.** How did the Kd turn out when full-length recombinant IGF-II (ligand) was run?
**A.** Its Kd is 8.8 nM.

**Q.** And the koff?
**A.** Its koff is 0.0034 s⁻¹.

**Q.** What does the source list for “GILT-tagged GAA (BMN 701) (from UniProt P01344 32-91; P10253 70-952) (enzyme)”?
**A.** Kd: 21 nM; koff: 0.0058 s⁻¹
